For three substances, % double positive results are on record in US20060286092A1.

Assay [1] deals with B7-H1 (full-length, expressed on BHK cells transfected with pZMP21 hB7-H1) (human) (UniProt Q9NZQ7). Nature of the assay: flow cytometry (PE probe vs anti-CD8 APC) on BHK cells transfected with full-length B7-H1; no competitor. In general terms: Flow cytometry measures light scatter and fluorescence of single cells or particles in a stream.
The target is the same in assay [2]. Nature of the assay: flow cytometry on B7-H1-transfected BHK cells; competitor: excess unlabeled BTLA/mFc2 (row printed a second time).
Assay [3] shares this target. The assay can be described thus: flow cytometry on B7-H1-transfected BHK cells; competitor: excess unlabeled BTLA/mFc2.
For assay [4] the target is unchanged. The assay can be described thus: flow cytometry on B7-H1-transfected BHK cells; competitor: excess unlabeled NKp30/mFc2.

Sequence of UniProt Q9NZQ7 (Q9NZQ7 19-290): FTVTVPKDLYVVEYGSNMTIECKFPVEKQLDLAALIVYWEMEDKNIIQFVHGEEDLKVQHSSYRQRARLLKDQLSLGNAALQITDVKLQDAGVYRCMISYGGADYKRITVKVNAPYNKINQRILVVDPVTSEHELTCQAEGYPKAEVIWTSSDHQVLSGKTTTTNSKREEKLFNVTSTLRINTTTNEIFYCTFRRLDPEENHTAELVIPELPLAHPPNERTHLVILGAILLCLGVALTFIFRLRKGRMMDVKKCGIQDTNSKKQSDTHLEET

In turn, BTLA/mFc2 (Fc fusion) registered a % double positive in assay [1] of 1.96%.

PD-1/Fc (Fc fusion): the % double positive was determined as 28.8% in assay [2], 28.8% in assay [3], 33.7% in assay [1] and 31.4% in assay [4].

Zenon control: in assay [1], the % double positive turned out to be 1.91%.
